Test results taken from the nanobody polyreactivity screen of Harvey et al. (2022).

Test: yeast display, Sf9 membrane polyspecificity reagent, FACS + sequencing; frameworks hold sequencing errors
Summary of the method: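 Galactose-induced (36–48 hours) yeast carrying a synthetic nanobody display library were exposed to 10% biotinylated, detergent-solubilized Sf9 membrane reagent at 4 °C for 1 hour. FACS followed streptavidin microbead enrichment, using low and high (top ~1%) gates for expression (anti-HA) and reagent binding (streptavidin). Colony PCR, MiSeq 2 × 250 sequencing and CDR-length filtering followed. Labels for polyreactivity reflect the gate of origin.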
With “QVQLVESGGGLVQAGGSLRLSCAASGSTFLGYTMGWSRQAPGKERELVATITRRGGRTSYADSVKGRFTISRDNAKNTVYLQMNSLKPEDTAVYYCATDSKRSSVPWNTYDYWGQGTQVTVSS” the “polyreactivity (PSR sort gate)” value was “high polyreactivity”.
In the case of “QVQLVESGGGLVQAGGSLRLSCAASGSTFLLNAMGWSRQAPGKDRELVAAITWTGGSTYYADSVKGRFTISRDNAKNTVYLQMNILKPEDTAVYYCAAETYVTSYDYWGQGTQVTVSS”, the “polyreactivity (PSR sort gate)” value is reported as “low polyreactivity”.
In the case of “QVQLVESGGGLVQAGGSLRLSCAASGSTFLLNAMGWYRQAPGKERELVAAITSSGGTNYADSVKGRFTISRDNAKNTVYLQMISLKPEDTAVYYCNTRYSPGYQGTEVDYWGQGTQVTVSS”, the “polyreactivity (PSR sort gate)” value is reported as “low polyreactivity”.
With “QVQLVESGGGLVQAGGSLRLSCAASGSTFLLNAMGWYRQAPGTERELVAAITSSGGTNYADSVKGRFTISRDNAKNTVYLQMNSLKPEDTAVYYCAKDQERVTKGRFYLLEYYWGQGTQVTVSS” the “polyreactivity (PSR sort gate)” value was “low polyreactivity”.
For “QVQLVESGGGLVQAGGSLRLSCAASGSTFLLYAMGWSRQAPGKERELVASISGDGSTNYADSVKGRFTISRDNAKNTVYLQMNSLKPEDTAVYYCARDTVHRLRISSVISNYWGQGTQVTVSS”, the “polyreactivity (PSR sort gate)” value was “low polyreactivity”.
For “QVQLVESGGGLVQAGGSLRLSCAASGSTFLPYAMGWYRQAPGKERELVAAIRWSVGSTYYADSVKGRFTISRDNAKNTVYLQMNSLIPEVTAGYYCYAVVYVVGDFDYWGQGSQVTVSS”, the “polyreactivity (PSR sort gate)” value was “high polyreactivity”.
In the case of “QVQLVESGGGLVQAGGSLRLSCAASGSTFLQYAMGWYRQPPGKERELVAAIRFSTGTTYYADSVKGRFTISRDNAKNTVYLQMNSLKPEDTAVYYCNAVGTYRPWFHTYGYWGQGTQVTVSS”, the “polyreactivity (PSR sort gate)” value is reported as “high polyreactivity”.
For “QVQLVESGGGLVQAGGSLRLSCAASGSTFLRNAMGWYRQAPGKERELVATITNGGSTYYADSVKGRFTISRDNAKNTVYLQMNSLKPEDTAVYYCATRSSYWSWLRYGYGYWGQGTQVTVSS”, the “polyreactivity (PSR sort gate)” value was “low polyreactivity”.
With “QVQLVESGGGLVQAGGSLRLSCAASGSTFLRNAMRWYRQAPGKERELVAAISRSGGSTYYADSVKGRFTSSRDNAKNTVYLQMNSLKPEDTAVYYCAAVVKYRYSAYGGDYCGQGTQVTVSS” the “polyreactivity (PSR sort gate)” value was “high polyreactivity”.
For “QVQLVESGGGLVQAGGSLRLSCAASGSTFLRNDMGWYRQAPGKERELVAAITSGGITNYADSVKGRFTISRDNAKNTVSLQMNSLKPEDTAVYYCNKDSDLHHYHTEFDYWGQGTQVTVSS”, the “polyreactivity (PSR sort gate)” value was “low polyreactivity”.
For “QVQLVESGGGLVQAGGSLRLSCAASGSTFLRNVMGWYRQAPGKERELVAAISSRGGSTHYADSVKGRFTISRDNAKNTDYLQMNSLKPEDTAVYYCNAERTAAQYVRAAYDYWGQGTQVTVSS”, the “polyreactivity (PSR sort gate)” value was “low polyreactivity”.
For “QVQLVESGGGLVQAGGSLRLSCAASGSTFLSYAMGWYRQAPGKERELVAAITGSGGSTYYADSVKGRFTISRDNAKNTVYLQMNSLKPEDTAVYYCATDLWRWYGWFDYWGQGTQVTVSS”, the “polyreactivity (PSR sort gate)” value was “low polyreactivity”.
In the case of “QVQLVESGGGLVQAGGSLRLSCAASGSTFLTNTMGWYRQAPGKERELVAIISRSSGTTYYSDSVKGRFTISRDNAKNTVYLQMNSLKPEDTAVYYCAKRYRRAYPYSKNDYWGQGTQVTVSS”, the “polyreactivity (PSR sort gate)” value is reported as “high polyreactivity”.
In the case of “QVQLVESGGGLVQAGGSLRLSCAASGSTFLVYAMGWYRQAPGKERELVAAIRGGGSTNYADSVKGRFTISRDNAKNTVYLQMNSLKPEDTAVYYCNADIVLSWFGSGFDYWGQGTQVTVSS”, the “polyreactivity (PSR sort gate)” value is reported as “low polyreactivity”.
With “QVQLVESGGGLVQAGGSLRLSCAASGSTFLYNALGWYRPAPGKEREFVAAISGSGGTTYYADSVKGRFTISRDNAKNTVYLQMNSLKPEDTAVYYCAVSQSWYWYYASDYWGQGTQVTVSS” the “polyreactivity (PSR sort gate)” value was “low polyreactivity”.
With “QVQLVESGGGLVQAGGSLRLSCAASGSTFLYNTMGWYRQAPGKERELVATITSRGDRTYYADSVKGRFTISRDIPKNNVYLQMNSLKPEDTAVYYCNAYGGNYPQSYRYYYWGQGTQVTVSS” the “polyreactivity (PSR sort gate)” value was “low polyreactivity”.
For “QVQLVESGGGLVQAGGSLRLSCAASGSTFLYYAMGCYRQAPGKDRELVARITTRVGRTYYADSVKGRFTISRDNAKNTVYLQMNSLKPEDTAVYYCNAPYLKSRFRAYYHWGQGTQVTVAS”, the “polyreactivity (PSR sort gate)” value was “high polyreactivity”.
With “QVQLVESGGGLVQAGGSLRLSCAASGSTFLYYAMGWYRPAPGKEREFVASISGSGGSTNYADSVKGRFTISRDNAKTTVYLQLNSLKPEDTAVYYCAAGYGGWAWNHVSYGGDYWGQGTQVTVSS” the “polyreactivity (PSR sort gate)” value was “low polyreactivity”.
In the case of “QVQLVESGGGLVQAGGSLRLSCAASGSTFLYYAMGWYRPAPGKERELVAAISSGDSTYADSVKGRFTISRDNAKNTVYLQMNSLKPEDTAVYYCNTVLYPYWQWDYEFDYWGQGTQVTVSS”, the “polyreactivity (PSR sort gate)” value is reported as “low polyreactivity”.
For “QVQLVESGGGLVQAGGSLRLSCAASGSTFLYYAMGWYRQAPGKERELVAAITSSGGRTYYADSVKGRFTISRDNAKNTVYLQMNSLKPEDTAVYYCARGWPRREQSEYDYWGQGTQVTVSS”, the “polyreactivity (PSR sort gate)” value was “high polyreactivity”.
With “QVQLVESGGGLVQAGGSLRLSCAASGSTFLYYAMGWYRQAPGKERELVARITTRVGRTYYADSVKGRFTISRDNAKNTVYFQMNSLKPEDTAVYYCAAYPDYSYYYWGQGTQVTVSS” the “polyreactivity (PSR sort gate)” value was “high polyreactivity”.
In the case of “QVQLVESGGGLVQAGGSLRLSCAASGSTFLYYAMGWYRQAPGKERELVASITRRGGRTYYADSVKGRFTISRDNAKNTVYLQMNSLKPVDTAVYYCNAVYGRQYRGYNYKFFYWGQGTQVTVSS”, the “polyreactivity (PSR sort gate)” value is reported as “high polyreactivity”.
In the case of “QVQLVESGGGLVQAGGSLRLSCAASGSTFLYYEMGWYRQAPGKDRELVAAISASGGSTYYADSVKGRFTISRDNAKSTVYLQMNSLKPEDTAVYYCAAVYHWVRPILYYWGQGTQVTVSS”, the “polyreactivity (PSR sort gate)” value is reported as “high polyreactivity”.
For “QVQLVESGGGLVQAGGSLRLSCAASGSTFNANAMGWYRQAPGKERELVAGISSGGSTYADSVKGRFTISRDNAKNTVYLQMNSLKPEDSAVYYCNADYYSWYPTFYWYDYWGQGSQVTVSS”, the “polyreactivity (PSR sort gate)” value was “high polyreactivity”.
For “QVQLVESGGGLVQAGGSLRLSCAASGSTFNAYAMGWYRQAPGKERELVAAISYTGGSTYYADSVKGRFTISRDNAKNTVYLQMNSLKPEDTAVYYCARRQARKFYYWGQGTQVTVSS”, the “polyreactivity (PSR sort gate)” value was “high polyreactivity”.
For “QVQLVESGGGLVQAGGSLRLSCAASGSTFNDYAMGWYRQAPGKERELVAGITWRGTSTYYADSVKGRFTISRDNAKNTVYLQRNSLKPEDTAVYYCAADVYYLLWLWMDYWGQGTQVTVSS”, the “polyreactivity (PSR sort gate)” value was “low polyreactivity”.
With “QVQLVESGGGLVQAGGSLRLSCAASGSTFNFNAMGWYRQAPGKERELVAAISSSGGSTYYADSVKGRFTISRDNAKNTVYLQMNSLKPEDTAVYYCATVLRKSPLYYYWGQGTQVTVSS” the “polyreactivity (PSR sort gate)” value was “high polyreactivity”.
For “QVQLVESGGGLVQAGGSLRLSCAASGSTFNGYAMGWYRQAPGKERELVAAISKRGGSTYYADSVKGRFTISRDNAKNTVYLQMNSLKPEETAVYYCAARVGRTYTVVWWSHYNYWGQGTQVTVSS”, the “polyreactivity (PSR sort gate)” value was “high polyreactivity”.
For “QVQLVESGGGLVQAGGSLRLSCAASGSTFNHYAMGWYRQAPGKERELVAAITKSGGSTYADSVKGRFTISRDNAKNTVYIQMNSLKPEDTAVYYCAAGRRKYGTKGRGDYWGQGTQVTVSS”, the “polyreactivity (PSR sort gate)” value was “low polyreactivity”.
With “QVQLVESGGGLVQAGGSLRLSCAASGSTFNINVMGWYRQAPGKERELVASISTGDITYYADSVKGRFTISRDNAKNTVYLQMNSLKPEDTAVYYCAAESYTGKYSWVWKWYDYWGQGTQVTVSS” the “polyreactivity (PSR sort gate)” value was “low polyreactivity”.
In the case of “QVQLVESGGGLVQAGGSLRLSCAASGSTFNIYGMGWYRQAPGKERELVARISSGGSTYADSVKGRFTISRDNAKNTVYLQMNSLKPEDTAVYYCAAAAARTYRRYRYEGYYYWGQGTQVTVSS”, the “polyreactivity (PSR sort gate)” value is reported as “high polyreactivity”.
In the case of “QVQLVESGGGLVQAGGSLRLSCAASGSTFNKYAMGWYRPPPGKERELVAAISWTGGHTYYADSVKGRFTFSRDNAKNTVYLQMNSLKPEDTAVYYCNTVNSRPKYNYWGQGTQVTVSS”, the “polyreactivity (PSR sort gate)” value is reported as “high polyreactivity”.
In the case of “QVQLVESGGGLVQAGGSLRLSCAASGSTFNKYTMGWYRQAPGKERELVAAISRIGGSTYYADSVKGRFTISRDNAKNTVYLQMNSLKPEDTAVYYCAAPYPIGHDWGQGTQVTVSS”, the “polyreactivity (PSR sort gate)” value is reported as “low polyreactivity”.
With “QVQLVESGGGLVQAGGSLRLSCAASGSTFNLYAMGWYRQAPGKERELVAAISGNGDRTYYADSVKGRFTISRDNAKNTVYLQMNSLKPEDTAVYYCAAKYYGWGQGTQVTVSS” the “polyreactivity (PSR sort gate)” value was “high polyreactivity”.
For “QVQLVESGGGLVQAGGSLRLSCAASGSTFNNAMGWYRQAPGKERELVAAITRSGVRTYYADSVKGRFTISRDNAKNTVYLQMNSLKPEDTAVYYCAAGFQSRRYYAGYEDWGQGTQVSVSS”, the “polyreactivity (PSR sort gate)” value was “high polyreactivity”.
With “QVQLVESGGGLVQAGGSLRLSCAASGSTFNPYAMGWYRQAPGKERELLAAITWSSDDTYYADSVKGRFTISRDNAKNTVYLQMNSLKPEDTAVYYCAADVIGDLRWYGDEYWGQGTQVTESS” the “polyreactivity (PSR sort gate)” value was “low polyreactivity”.
With “QVQLVESGGGLVQAGGSLRLSCAASGSTFNQYTMGWYRQAPGKERELVAAISKSGGSTYYADSVKGRFTISRDNAKNTVYFQMNSLKPEVTAVYYCAADRYYDYRVDYWGQGTQVTVSS” the “polyreactivity (PSR sort gate)” value was “high polyreactivity”.
For “QVQLVESGGGLVQAGGSLRLSCAASGSTFNRNAMGWYRHAPGKERELVATISTGGVSTYYADSVKGRFTISRDNAKNTVYLQMNSLKPEDTAVYYCAKRTVYLSNLDYWGQGTQVTVSS”, the “polyreactivity (PSR sort gate)” value was “low polyreactivity”.
For “QVQLVESGGGLVQAGGSLRLSCAASGSTFNRYAMGWYRPAPGKEWELVAAISGSNGGTDYADSVKGRFTISRDNAKNTVYLQMNSLKPEDTAVYYCAKVRAYTRLGLTVSMDYWGQGTQVTVSS”, the “polyreactivity (PSR sort gate)” value was “high polyreactivity”.
In the case of “QVQLVESGGGLVQAGGSLRLSCAASGSTFNRYAMGWYRQAPGKERELVASISWGGGRTYYADSVKGRFTISRDNAKNTVYLQMNSLKPEDSAVYYCAAGGALASQWSTKLYDYWGQGTQVTVSS”, the “polyreactivity (PSR sort gate)” value is reported as “low polyreactivity”.
In the case of “QVQLVESGGGLVQAGGSLRLSCAASGSTFNRYAMGWYRQAPGTERELVAAISGRGGSTYYADSVKGRFTISRDNAKNTVYLQMNSLKPEDTAVYYCAKLSYLHGTAREFRFDYWGQGTQVTVSS”, the “polyreactivity (PSR sort gate)” value is reported as “high polyreactivity”.
For “QVQLVESGGGLVQAGGSLRLSCAASGSTFNRYAMGWYRQEPGTERELVASIRISGGSTYYADSVKGRFTISRDNAKNTVYLQMNSLKPEDTAVYYCNAKLFIRWFTYDFLGQGTQVTVSS”, the “polyreactivity (PSR sort gate)” value was “low polyreactivity”.
In the case of “QVQLVESGGGLVQAGGSLRLSCAASGSTFNSYAMGWYRQAPGKERELVAAITSSVGSTYYADSVKGRFTISRDNAKNTVYLQMNSLKPEDTAVYYCAADYFSYWYFSGYDYWGQGTQVTVSS”, the “polyreactivity (PSR sort gate)” value is reported as “low polyreactivity”.
